Measured values published in patent US6967029 (Amgen, dated 2005).

Biological target: T1, human SCF receptor, native, on cell membranes (human, UniProt P10721 26-976)
T1 construct: whole, on cells; also called human SCF receptors on OCIM1 cells (isolated OCIM1 plasma membrane); SCF receptors on leukemic blasts
Assay: radioreceptor assay: competition with 125I-huSCF on OCIM1 plasma membrane

specific activity in the radioreceptor assay relative to SCF^1-164: ~50 % of the value for SCF^1-164
B1: E. coli derived human SCF^1-130 analog (ligand)
chain: EGICRNRVTNNVKDVTKLVANLPKDYMITLKYVPGMDVLPSHCWISEMVVQLSDSLTDLLDKFSNISEGLSNYSIIDKLVNIVDDLVECVKENSSKDLKKSFKSPEPRLFTPEEFFRIFNRSIDAFKDFV
notes: Plasmid encodes an initiating methionine before residue 1; Dimeric in solution by gel filtration
